These results are taken from the supplement of paper PMC11246515.

± gives the standard deviation of the averaged measurements.

The data set in a line: total protein half-life in vivo (active degradation + dilution); higher = more stable protein.
Where [1] appears, read: E. coli NCM3722 delta-clpP delta-lon delta-hslV, growth: N-lim chemostat, doubling time 6 h.
The mark [2] stands for this setting: E. coli NCM3722 delta-clpP, growth: N-lim chemostat, doubling time 6 h.
Setting [3] is: E. coli NCM3722 delta-hslV, growth: N-lim chemostat, doubling time 6 h.
Where [4] appears, read: E. coli NCM3722 delta-lon, growth: N-lim chemostat, doubling time 6 h.
Setting [5] is: E. coli NCM3722 delta-smpB, growth: N-lim chemostat, doubling time 6 h.
Setting [6] is: wild type E. coli NCM3722, growth: C-lim chemostat, doubling time 3 h.
The mark [7] stands for this setting: wild type E. coli NCM3722, growth: C-lim chemostat, doubling time 6 h.
Setting [8] is: wild type E. coli NCM3722, growth: C-lim chemostat, doubling time 12 h.
The mark [9] stands for this setting: wild type E. coli NCM3722, growth: N-lim chemostat, doubling time 6 h.
Setting [10] is: wild type E. coli NCM3722, growth: N-lim chemostat, doubling time 12 h.
[11] abbreviates: wild type E. coli NCM3722, growth: P-lim chemostat, doubling time 6 h.
Setting [12] is: wild type E. coli NCM3722, growth: P-lim chemostat, doubling time 12 h.

On to “MQILLANPRGFCAGVDRAISIVENALAIYGAPIYVRHEVVHNRYVVDSLRERGAIFIEQISEVPDGAILIFSAHGVSQAVRNEAKSRDLTVFDATCPLVTKVHMEVARASRRGEESILIGHAGHPEVEGTMGQYSNPEGGMYLVESPDDVWKLTVKNEEKLSFMTQTTLSVDDTSDVIDALRKRFPKIVGPRKDDICYATTNRQEAVRALAEQAEVVLVVGSKNSSNSNRLAELAQRMGKRAFLIDDAKDIQEEWVKEVKCVGVTAGASAPDILVQNVVARLQQLGGGEAIPLEGREENIVFEVPKELRVDIREVD”, for which the “total protein half-life in vivo” value is, setting by setting: under setting [1], 5.14 ± 0.44 h; under setting [2], 3.68 ± 0.91 h; under setting [3], 2.78 ± 0.23 h; under setting [4], 3.1 ± 0.29 h; under setting [5], 2.44 ± 0.24 h; under setting [6], 2.5 ± 0.044 h. The “total protein half-life in vivo” value under setting [7] was determined as 3.72 ± 0.34 h; the “total protein half-life in vivo” value under setting [8] was 5.14 ± 0.29 h; the “total protein half-life in vivo” value under setting [9] was 2.69 ± 0.3 h; the “total protein half-life in vivo” value under setting [10] came out at 3.69 ± 0.062 h; the “total protein half-life in vivo” value under setting [11] stood at 2.89 ± 0.034 h; the “total protein half-life in vivo” value under setting [12] came out at 5.25 ± 0.3 h.

Take “MDLLYRVKTLWAALRGNHYTWPAIDITLPGNRHFHLIGSIHMGSHDMAPLPTRLLKKLKNADALIVEADVSTSDTPFANLPACEALEERISEEQLQNLQHISQEMGISPSLFSTQPLWQIAMVLQATQAQKLGLRAEYGIDYQLLQAAKQQHKPVIELEGAENQIAMLLQLPDKGLALLDDTLTHWHTNARLLQQMMSWWLNAPPQNNDITLPNTFSQSLYDVLMHQRNLAWRDKLRAMPPGRYVVAVGALHLYGEGNLPQMLR”: the “total protein half-life in vivo” value worked out at 5.23 h under setting [1]; 5.02 h under setting [2]; 5.67 h under setting [3]; 5.61 h under setting [4]; 5.46 ± 0.086 h under setting [5]; 2.97 ± 0.043 h under setting [6]. For the same sequence, the “total protein half-life in vivo” value by setting is: under setting [8], 11.5 h; under setting [9], 5.74 ± 0.45 h; under setting [10], 12.5 h; under setting [11], 5.75 ± 0.62 h; under setting [12], 10.6 ± 0.083 h.

As to “MSPCKLLPFCVALALTGCSLAPDYQRPAMPVPQQFSLSQNGLVNAADNYQNAGWRTFFVDNQVKTLISEALVNNRDLRMATLKVQEARAQYRLTDADRYPQLNGEGSGSWSGNLKGNTATTREFSTGLNASFDLDFFGRLKNMSEAERQNYLATEEAQRAVHILLVSNVAQSYFNQQLAYAQLQIAEETLRNYQQSYAFVEKQLLTGSSNVLALEQARGVIESTRSDIAKRQGELAQANNALQLLLGSYGKLPQAQTVNSDSLQSVKLPAGLSSQILLQRPDIMEAEHALMAANANIGAARAAFFPSISLTSGISTASSDLSSLFNASSGMWNFIPKIEIPIFNAGRNQANLDIAEIRQQQSVVNYEQKIQNAFKEVADALALRQSLNDQISAQQRYLASLQITLQRARALYQHGAVSYLEVLDAERSLFATRQTLLDLNYARQVNEISLYTALGGG”, the “total protein half-life in vivo” value reads like this: under setting [1], 6.75 h; under setting [4], 5.11 ± 0.78 h; under setting [5], 5.15 ± 2.9 h; under setting [7], 7.18 h; under setting [8], over 16 h; under setting [9], 6.34 ± 0.14 h. The “total protein half-life in vivo” value was 12.47 ± 0.09 h under setting [10], 6.29 ± 0.17 h under setting [11] and 13.07 ± 0.062 h under setting [12].

Consider “MSERLSITPLGPYIGAQISGADLTRPLSDNQFEQLYHAVLRHQVVFLRDQAITPQQQRALAQRFGELHIHPVYPHAEGVDEIIVLDTHNDNPPDNDNWHTDVTFIETPPAGAILAAKELPSTGGDTLWTSGIAAYEALSVPFRQLLSGLRAEHDFRKSFPEYKYRKTEEEHQRWREAVAKNPPLLHPVVRTHPVSGKQALFVNEGFTTRIVDVSEKESEALLSFLFAHITKPEFQVRWRWQPNDIAIWDNRVTQHYANADYLPQRRIMHRATILGDKPFYRAG”, for which the “total protein half-life in vivo” value is 4.38 ± 0.24 h under setting [1]; 4.17 ± 3.1 h under setting [2]; 2.39 ± 0.83 h under setting [3]; 2.1 h under setting [4]; 2.36 ± 0.22 h under setting [5]; 2.88 ± 0.46 h under setting [6]. Besides, the “total protein half-life in vivo” value runs as follows: under setting [7], 4.02 h; under setting [8], 5.19 ± 0.73 h; under setting [9], 1.58 h; under setting [10], 2.31 ± 0.34 h; under setting [11], 4.3 h; under setting [12], 7.36 ± 0.57 h.
